Data on one molecule can be found in patent publication US20250074994A1 (Molecular Partners, published 2025).

The assay concerns the target T1, biotinylated recombinant human CD70 (extracellular domain, Fc tag) (human, UniProt P32970 52-193, chemically biotinylated using 5-fold excess of Biotin).
T1 construct: Bought from ACROBiosystems; also called bio.hCD70; Bio.CD70; not shown: C-terminal Fc Tag of the bought protein (ACROBiosystems)
T1 sequence: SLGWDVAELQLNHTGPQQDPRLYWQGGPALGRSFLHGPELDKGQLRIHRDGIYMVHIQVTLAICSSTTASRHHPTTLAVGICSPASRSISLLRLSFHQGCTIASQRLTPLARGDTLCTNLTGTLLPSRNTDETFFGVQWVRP
Briefly: crude cell extract HTRF with 2 nM biotinylated hCD70. The text has this: Selected clones bind specially to human CD70 as shown by crude extract HTRF Individual selected ankyrin repeat proteins specifically binding to hCD70 in solution were identified by a Homogeneous Time Resolved Fluorescence (HTRF) assay using crude extracts of ankyrin repeat protein-expressing Escherichia coli cells using standard protocols. Ankyrin repeat protein clones selected by ribosome display were cloned into derivatives of the pQE30 (Qiagen) expression vector (pMPDV25), transformed into E. coli XL1-Blue (Stratagene), plated on LB-agar (containing 1% glucose and 50 μg/ml ampicillin) and then incubated overnight at 37° C. […]
The extract of each lysed clone was applied as a 1:2000 dilution (final concentration) in PBSTB (PBS supplemented with 0.1% Tween 20® and 0.2% (w/v) BSA, pH 7.4) together with 2 nM (final concentration) biotinylated hCD70, 1:400 (final concentration) of anti-strep-Tb HTRF antibody—FRET donor conjugate (Cisbio) and 1:400 (final concentration) of anti-6His-D2 antibody FRET acceptor conjugate (Cisbio) to a well of 384 well plate and incubated for 60 minutes at RT. The HTRF was read-out on a Tecan M1000 using a 340 nm excitation wavelength and a 665±10 nm emission filter.
For orientation: Time-resolved FRET reads energy transfer from a long-lived donor to a nearby acceptor.

B1: DARPin® protein #4 (designed binder)
chain: MRGSHHHHHHGSDLGFKLLQAALRGQDDEVRILLAAGADVNAKDQLGTTPLHLAAHYGHLEIVEVLLKAGADVNAKDVWGDTPLHLAAQHGHLEIVEVLLKAGADVNAQDRAGYTPADLAAQEGHEDIAEVLQKAA
With B1, the binding result is given as “binds”.
